Source: patent US20240191211A1, “BIOLUMINESCENCE-TRIGGERED PHOTOCATALYTIC LABELING” (Promega Corporation, priority 2022, published 2024)

Key:
[1] = Brightness and BRET efficiency to a bound HaloTag TMR-fluorescent ligand; type: biochemical; details: versus HaloTag-LgBiT configuration, complemented with VS-HiBiT
From the text: The efficiency of bioluminescence-triggered catalyst activation depends on the emission intensity of the luciferase energy donor, spectral overlap between luciferase emission and catalyst excitation, proximity between the luciferase and catalyst, and capacity of the complex to adopt a conformation favorable for efficient energy transfer between the two. First, the influence of the NanoLuc-HaloTag fusion orientation on the efficiency of bioluminescence resonance energy transfer (BRET) to a bound HaloTag TMR-fluorescent ligand was tested. To this end, fusions either untethered or tethered to a HaloTag TMR-fluorescent ligand were diluted in TBS+0.01% BSA to a final concentration of 6.6 nM and then treated with 10× fluorofurimazine at a final concentration of 20 M. Following 3 minutes incubation, raw luminescence (Total RLU) or filtered luminesces for donor (e.g., 450 nm/8 nm BP) and acceptor (600 nm LP) emissions, respectively were measured on a GloMax® Discover plate reader (Promega). BRET ratios were further calculated for each sample by dividing the acceptor emission value by its donor emission value. While both orientations delivered equivalent brightness one of them NanoLuc-HaloTag provided greater BRET efficiency (FIG. 16A), which is likely due to greater proximity between NanoLuc's substrate binding site and the bound fluorescent ligand. […]

[2] = tested on: VS-HiBiT peptide; test: Complementation affinity with VS-HiBiT peptide; type: binding; details: versus HaloTag-LgBiT configuration
From the text: Such configuration offers a modality agnostic approach for proximity between the photocatalytic complex and protein of interest genetically fused to HiBiT as well as greater spatial control over photocatalytic reactivity. First, the properties of the bioluminescent complementation reporter comprising VS-HiBiT peptide and either HaloTag-LgBiT or LgBiT-HaloTag were compared (FIG. 23 A-C). To determine complementation affinity, equal volumes of VS-HiBiT peptide serially diluted in TBS+0.01% BSA to final concentrations of 200-0 nM and HaloTag-LgBiT or LgBiT-HaloTag diluted in TBS+0.01% BSA to a final concentration of 0.2 nM were combined in wells of a white 96-well plate and mixed for 30 minutes. Following a 3-minutes treatment with either 10× furimazine or fluorofurimazine at a final concentration 20 M, bioluminescence was measured on a GloMax® Discover plate reader (Promega), and binding affinity (Kd) was derived from a saturation binding curve of luminescence against VS-HiBiT concentration (FIG. 23A). […] Following a 3-minutes treatment with either 10× furimazine or fluorofurimazine at a final concentration 20 M, raw luminescence (Total RLU; FIG. 23B) or filtered luminesces of donor (e.g., 450 nm/8 nm BP) and acceptor (600 nm LP) emissions were measured on a GloMax® Discover plate reader (Promega). […]

B1: VS-HiBiT/LgBiT-HaloTag: bioluminescent complementation reporter comprising VS-HiBiT peptide and LgBiT-HaloTag (protein)
chain: MVFTLEDFVGDWEQTAAYNLDQVLEQGGVSSLLQNLAVSVTPIQRIVRSGENALKIDIHVIIPYEGLSADQMAQIEEVFKVVYPVDDHHFKVILPYGTLVIDGVTPNMLNYFGRPYEGIAVFDGKKITVTGTLWNGNKIIDERLITPDGSMLFRVTINSMAEIGTGFPFDPHYVEVLGERMHYVDVGPRDGTPVLFLHGNPTSSYVWRNIIPHVAPTHRCIAPDLIGMGKSDKPDLGYFFDDHVRFMDAFIEALGLEEVVLVIHDWGSALGFHWAKRNPERVKGIAFMEFIRPIPTWDEWPEFARETFQAFRTTDVGRKLIIDQNVFIEGTLPMGVVRPLTEVEMDHYREPFLNPVDREPLWRFPNELPIAGEPANIVALVEEYMDWLHQSPVPKLLFWGTPGVLIPPAEAARLAKSLPNCKAVDIGPGLNLLQEDNPDLIGSEIARWLSTLEISG
modifications: left off: large carriers
BRET efficiency, fold greater [1]: 1.5-2 fold
complementation affinity, fold higher [2]: 3 fold
